Reference: doi:10.1101/2024.03.12.584565 (bioRxiv, 2024)

What was measured:
Assay in all cases: pull-down
[1] = molecular target: T1, Flag-tagged Pds5b-WT, treated with Nek2a and Cdk1/2-cyclin A2 in vitro (human, UniProt Q9NTI5 1-1447)
T1 sequence: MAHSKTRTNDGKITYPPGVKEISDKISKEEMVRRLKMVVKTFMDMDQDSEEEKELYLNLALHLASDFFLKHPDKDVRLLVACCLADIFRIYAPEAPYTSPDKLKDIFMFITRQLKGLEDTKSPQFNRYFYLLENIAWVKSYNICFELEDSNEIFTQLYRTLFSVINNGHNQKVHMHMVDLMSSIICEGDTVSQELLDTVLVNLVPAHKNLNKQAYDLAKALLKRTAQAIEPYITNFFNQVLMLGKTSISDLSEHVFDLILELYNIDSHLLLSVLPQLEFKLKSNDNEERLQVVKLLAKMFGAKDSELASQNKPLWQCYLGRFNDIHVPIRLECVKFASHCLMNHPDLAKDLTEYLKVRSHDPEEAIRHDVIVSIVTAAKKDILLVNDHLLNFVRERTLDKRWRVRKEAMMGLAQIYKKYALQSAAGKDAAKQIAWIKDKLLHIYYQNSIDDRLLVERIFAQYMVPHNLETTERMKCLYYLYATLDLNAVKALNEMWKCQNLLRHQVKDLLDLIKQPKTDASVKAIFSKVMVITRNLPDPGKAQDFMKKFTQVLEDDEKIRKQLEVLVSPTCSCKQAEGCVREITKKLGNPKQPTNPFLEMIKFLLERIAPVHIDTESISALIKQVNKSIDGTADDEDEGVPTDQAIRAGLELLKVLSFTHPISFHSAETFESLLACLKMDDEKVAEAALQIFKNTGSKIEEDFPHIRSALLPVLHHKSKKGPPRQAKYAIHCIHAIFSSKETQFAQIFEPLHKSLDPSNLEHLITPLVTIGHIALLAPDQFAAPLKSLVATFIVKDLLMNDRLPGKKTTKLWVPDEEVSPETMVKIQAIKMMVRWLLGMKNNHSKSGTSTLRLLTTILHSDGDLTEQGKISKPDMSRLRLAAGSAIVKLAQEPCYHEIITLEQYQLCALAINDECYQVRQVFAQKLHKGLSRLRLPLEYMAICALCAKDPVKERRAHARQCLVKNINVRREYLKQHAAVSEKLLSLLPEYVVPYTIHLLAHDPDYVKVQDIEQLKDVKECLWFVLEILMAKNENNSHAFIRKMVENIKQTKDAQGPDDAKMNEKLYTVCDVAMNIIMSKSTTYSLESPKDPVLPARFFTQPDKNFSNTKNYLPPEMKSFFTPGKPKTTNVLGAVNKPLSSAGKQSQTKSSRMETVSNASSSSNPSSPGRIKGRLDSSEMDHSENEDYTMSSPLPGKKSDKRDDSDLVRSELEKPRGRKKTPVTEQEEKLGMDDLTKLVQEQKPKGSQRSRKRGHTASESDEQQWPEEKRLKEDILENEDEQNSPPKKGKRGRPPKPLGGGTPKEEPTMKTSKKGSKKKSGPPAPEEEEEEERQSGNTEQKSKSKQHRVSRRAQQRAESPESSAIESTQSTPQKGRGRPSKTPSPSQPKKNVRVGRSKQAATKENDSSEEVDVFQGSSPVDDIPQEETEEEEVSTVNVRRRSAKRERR

[2] = molecular target: T2, Flag-tagged Pds5b, co-expressed with Nek2aΔMR (human, UniProt Q9NTI5 1-1447)
T2 sequence: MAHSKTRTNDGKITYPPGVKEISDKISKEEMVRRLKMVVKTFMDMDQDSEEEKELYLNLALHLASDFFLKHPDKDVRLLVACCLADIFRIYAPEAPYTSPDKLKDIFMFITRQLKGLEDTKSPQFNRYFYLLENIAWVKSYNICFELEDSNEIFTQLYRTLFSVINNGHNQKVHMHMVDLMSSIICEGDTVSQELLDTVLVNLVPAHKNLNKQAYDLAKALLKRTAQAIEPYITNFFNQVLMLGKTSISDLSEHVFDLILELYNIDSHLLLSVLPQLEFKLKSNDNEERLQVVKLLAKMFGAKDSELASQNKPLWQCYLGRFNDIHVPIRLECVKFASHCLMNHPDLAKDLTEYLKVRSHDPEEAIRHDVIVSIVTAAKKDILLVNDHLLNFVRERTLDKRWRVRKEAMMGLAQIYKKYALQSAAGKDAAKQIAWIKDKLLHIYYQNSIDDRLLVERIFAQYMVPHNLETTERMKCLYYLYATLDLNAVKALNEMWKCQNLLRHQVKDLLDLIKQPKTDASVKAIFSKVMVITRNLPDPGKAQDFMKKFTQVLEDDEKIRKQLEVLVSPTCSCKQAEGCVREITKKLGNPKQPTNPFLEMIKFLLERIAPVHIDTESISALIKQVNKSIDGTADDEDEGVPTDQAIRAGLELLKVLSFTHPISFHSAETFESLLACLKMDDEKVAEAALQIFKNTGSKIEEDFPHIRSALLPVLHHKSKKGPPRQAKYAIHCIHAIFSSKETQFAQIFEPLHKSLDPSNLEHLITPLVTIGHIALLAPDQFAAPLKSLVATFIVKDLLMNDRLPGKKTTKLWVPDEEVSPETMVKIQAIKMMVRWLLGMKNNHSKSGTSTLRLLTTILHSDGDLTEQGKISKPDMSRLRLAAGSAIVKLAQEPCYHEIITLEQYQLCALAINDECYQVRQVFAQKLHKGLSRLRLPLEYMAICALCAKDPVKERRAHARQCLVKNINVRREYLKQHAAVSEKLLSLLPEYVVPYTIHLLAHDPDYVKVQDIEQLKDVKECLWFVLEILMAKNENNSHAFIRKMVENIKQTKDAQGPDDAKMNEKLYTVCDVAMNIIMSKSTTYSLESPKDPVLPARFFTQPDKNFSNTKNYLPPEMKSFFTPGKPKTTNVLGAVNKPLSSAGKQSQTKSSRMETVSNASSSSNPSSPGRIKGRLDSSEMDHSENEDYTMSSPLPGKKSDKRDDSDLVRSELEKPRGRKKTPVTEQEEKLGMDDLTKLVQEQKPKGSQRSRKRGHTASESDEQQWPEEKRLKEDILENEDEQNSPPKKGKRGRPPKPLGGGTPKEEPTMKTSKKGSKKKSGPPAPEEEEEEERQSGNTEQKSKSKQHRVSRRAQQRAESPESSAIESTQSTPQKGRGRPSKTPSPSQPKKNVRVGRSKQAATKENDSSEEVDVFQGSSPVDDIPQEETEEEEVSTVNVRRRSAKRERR

[3] = molecular target: T3, Flag-tagged Pds5b, co-expressed with Δ86-cyclin A2 (human, UniProt Q9NTI5 1-1447)
T3 sequence: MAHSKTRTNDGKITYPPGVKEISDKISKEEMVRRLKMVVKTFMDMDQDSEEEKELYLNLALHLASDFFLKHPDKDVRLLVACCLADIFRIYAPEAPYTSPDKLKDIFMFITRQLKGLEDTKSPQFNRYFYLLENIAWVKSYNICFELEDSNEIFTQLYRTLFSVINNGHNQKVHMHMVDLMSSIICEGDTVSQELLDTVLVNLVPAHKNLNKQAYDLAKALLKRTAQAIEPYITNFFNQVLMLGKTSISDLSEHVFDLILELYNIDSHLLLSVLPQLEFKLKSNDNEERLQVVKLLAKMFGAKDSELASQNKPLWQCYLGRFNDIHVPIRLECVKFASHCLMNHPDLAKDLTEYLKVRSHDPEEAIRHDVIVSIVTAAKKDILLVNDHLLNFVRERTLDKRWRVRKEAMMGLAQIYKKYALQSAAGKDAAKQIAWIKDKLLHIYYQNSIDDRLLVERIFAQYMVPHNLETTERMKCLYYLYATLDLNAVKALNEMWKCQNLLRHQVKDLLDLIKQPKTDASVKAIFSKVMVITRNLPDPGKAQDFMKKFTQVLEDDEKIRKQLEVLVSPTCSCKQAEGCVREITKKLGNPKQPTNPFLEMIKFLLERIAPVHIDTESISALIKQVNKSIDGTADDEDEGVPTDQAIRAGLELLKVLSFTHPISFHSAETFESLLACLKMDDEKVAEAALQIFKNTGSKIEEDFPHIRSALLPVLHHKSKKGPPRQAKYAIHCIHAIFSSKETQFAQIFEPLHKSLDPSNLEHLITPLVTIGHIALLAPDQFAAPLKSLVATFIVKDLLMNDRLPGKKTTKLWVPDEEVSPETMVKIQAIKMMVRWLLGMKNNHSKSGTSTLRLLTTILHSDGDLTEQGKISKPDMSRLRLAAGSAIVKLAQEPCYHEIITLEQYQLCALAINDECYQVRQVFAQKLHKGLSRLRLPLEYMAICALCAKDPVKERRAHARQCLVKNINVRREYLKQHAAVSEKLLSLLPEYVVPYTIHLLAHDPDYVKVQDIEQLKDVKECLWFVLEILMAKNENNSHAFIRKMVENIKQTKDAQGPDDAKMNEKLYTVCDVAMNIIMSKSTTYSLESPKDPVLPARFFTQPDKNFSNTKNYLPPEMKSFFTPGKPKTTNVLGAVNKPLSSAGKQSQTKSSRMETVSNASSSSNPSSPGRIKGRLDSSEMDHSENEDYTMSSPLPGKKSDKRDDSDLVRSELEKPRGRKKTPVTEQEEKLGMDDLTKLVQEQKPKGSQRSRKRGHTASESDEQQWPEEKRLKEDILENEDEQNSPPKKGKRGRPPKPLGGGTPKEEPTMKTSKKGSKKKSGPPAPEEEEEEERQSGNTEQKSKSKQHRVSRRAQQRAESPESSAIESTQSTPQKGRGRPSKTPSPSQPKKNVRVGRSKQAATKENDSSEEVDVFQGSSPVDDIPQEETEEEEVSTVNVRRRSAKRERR

[4] = molecular target: T4, Flag-tagged Pds5b-Ser1161,1166Ala (2A), phosphorylated by Nek2a in vitro (human, UniProt Q9NTI5 1-1447, Ser1161,1166Ala | Ser1161,1166Ala)
T4 sequence: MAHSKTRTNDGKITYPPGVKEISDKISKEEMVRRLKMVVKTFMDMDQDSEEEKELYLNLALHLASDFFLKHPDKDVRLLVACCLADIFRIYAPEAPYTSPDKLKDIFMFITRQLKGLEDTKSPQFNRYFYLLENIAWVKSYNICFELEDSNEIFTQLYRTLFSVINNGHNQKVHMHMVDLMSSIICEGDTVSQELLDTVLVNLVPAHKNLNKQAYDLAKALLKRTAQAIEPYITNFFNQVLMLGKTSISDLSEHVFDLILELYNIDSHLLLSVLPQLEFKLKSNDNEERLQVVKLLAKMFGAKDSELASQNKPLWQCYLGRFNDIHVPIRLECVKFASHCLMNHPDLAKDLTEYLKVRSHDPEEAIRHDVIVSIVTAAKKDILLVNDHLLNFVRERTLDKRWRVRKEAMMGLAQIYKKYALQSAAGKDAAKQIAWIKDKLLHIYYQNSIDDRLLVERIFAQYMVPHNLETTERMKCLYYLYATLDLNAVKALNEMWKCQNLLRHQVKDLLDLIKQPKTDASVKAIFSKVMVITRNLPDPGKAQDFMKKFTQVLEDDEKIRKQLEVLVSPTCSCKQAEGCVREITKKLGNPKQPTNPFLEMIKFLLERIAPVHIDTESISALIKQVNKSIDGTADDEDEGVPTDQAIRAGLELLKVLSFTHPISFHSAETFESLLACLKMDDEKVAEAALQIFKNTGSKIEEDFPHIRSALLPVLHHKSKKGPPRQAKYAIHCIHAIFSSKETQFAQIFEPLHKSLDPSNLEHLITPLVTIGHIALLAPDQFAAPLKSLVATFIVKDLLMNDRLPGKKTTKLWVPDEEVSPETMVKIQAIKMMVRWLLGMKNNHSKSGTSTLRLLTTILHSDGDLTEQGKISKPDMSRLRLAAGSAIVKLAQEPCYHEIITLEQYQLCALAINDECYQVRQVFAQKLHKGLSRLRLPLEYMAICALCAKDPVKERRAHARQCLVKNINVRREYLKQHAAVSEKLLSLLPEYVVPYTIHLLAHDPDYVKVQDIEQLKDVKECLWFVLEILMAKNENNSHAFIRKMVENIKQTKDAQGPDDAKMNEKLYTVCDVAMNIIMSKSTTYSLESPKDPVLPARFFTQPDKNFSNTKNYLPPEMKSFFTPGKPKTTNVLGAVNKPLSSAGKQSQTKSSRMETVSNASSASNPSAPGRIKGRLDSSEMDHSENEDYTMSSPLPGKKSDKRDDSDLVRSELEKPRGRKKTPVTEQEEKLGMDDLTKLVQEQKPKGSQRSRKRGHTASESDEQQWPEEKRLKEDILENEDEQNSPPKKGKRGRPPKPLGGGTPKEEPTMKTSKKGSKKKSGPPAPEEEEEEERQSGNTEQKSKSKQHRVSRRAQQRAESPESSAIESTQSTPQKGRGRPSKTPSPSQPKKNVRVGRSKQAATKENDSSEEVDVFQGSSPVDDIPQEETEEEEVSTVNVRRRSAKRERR

Measured: binding result

B1: recombinant human Wapl (natural protein)
chain: MTSRFGKTYSRKGGNGSSKFDEVFSNKRTTLSTKWGETTFMAKLGQKRPNFKPDIQEIPKKPKVEEESTGDPFGFDSDDESLPVSSKNLAQVKCSSYSESSEAAQLEEVTSVLEANSKISHVVVEDTVVSDKCFPLEDTLLGKEKSTNRIVEDDASISSCNKLITSDKVENFHEEHEKNSHHIHKNADDSTKKPNAETTVASEIKETNDTWNSQFGKRPESPSEISPIKGSVRTGLFEWDNDFEDIRSEDCILSLDSDPLLEMKDDDFKNRLENLNEAIEEDIVQSVLRPTNCRTYCRANKTKSSQGASNFDKLMDGTSQALAKANSESSKDGLNQAKKGGVSCGTSFRGTVGRTRDYTVLHPSCLSVCNVTIQDTMERSMDEFTASTPADLGEAGRLRKKADIATSKTTTRFRPSNTKSKKDVKLEFFGFEDHETGGDEGGSGSSNYKIKYFGFDDLSESEDDEDDDCQVERKTSKKRTKTAPSPSLQPPPESNDNSQDSQSGTNNAENLDFTEDLPGVPESVKKPINKQGDKSKENTRKIFSGPKRSPTKAVYNARHWNHPDSEELPGPPVVKPQSVTVRLSSKEPNQKDDGVFKAPAPPSKVIKTVTIPTQPYQDIVTALKCRREDKELYTVVQHVKHFNDVVEFGENQEFTDDIEYLLSGLKSTQPLNTRCLSVISLATKCAMPSFRMHLRAHGMVAMVFKTLDDSQHHQNLSLCTAALMYILSRDRLNMDLDRASLDLMIRLLELEQDASSAKLLNEKDMNKIKEKIRRLCETVHNKHLDLENITTGHLAMETLLSLTSKRAGDWFKEELRLLGGLDHIVDKVKECVDHLSRDEDEEKLVASLWGAERCLRVLESVTVHNPENQSYLIAYKDSQLIVSSAKALQHCEELIQQYNRAEDSICLADSKPLPHQNVTNHVGKAVEDCMRAIIGVLLNLTNDNEWGSTKTGEQDGLIGTALNCVLQVPKYLPQEQRFDIRVLGLGLLINLVEYSARNRHCLVNMETSCSFDSSICSGEGDDSLRIGGQVHAVQALVQLFLERERAAQLAESKTDELIKDAPTTQHDKSGEWQETSGEIQWVSTEKTDGTEEKHKKEEEDEELDLNKALQHAGKHMEDCIVASYTALLLGCLCQESPINVTTVREYLPEGDFSIMTEMLKKFLSFMNLTCAVGTTGQKSISRVIEYLEHC
binds: all assays above
